Measurements reported in PMC9823007.

Molecular target: NyxA (for SEC-MALS and SAXS) (Brucella abortus 2308) (UniProt Q2YPD9)
Test: SEC-MALS

How did the stoichiometry N turn out when “NyxA (for SEC-MALS and SAXS) (from UniProt Q2YPD9 1-129) (natural protein)” was run?
The stoichiometry N was 2.
